Data on three molecules can be found in patent publication US20050255555A1.

Some results are limits rather than exact numbers.

The target of assay [1] is wt-EGFR, FLAG-tagged full-length human EGFR on BaF/3 cells (human) (UniProt P00533). Nature of the assay: FACS on wtEGFR-BaF/3 cells, 10 µg/ml antibody.
Assay [2] shares this target. The assay is described as follows: FACS on wtEGFR-BaF/3 cells, median fluorescence against mock preincubation.
For assay [3], the target named is wild-type EGFR 273-621, yeast surface displayed (Example 3) (yeast; human). The assay is described as follows: titration on yeast displaying EGFR 273-621, flow cytometry, three data sets.
In assay [4] the target is EGFR 273-621 C287R, yeast surface displayed (yeast; human). Nature of the assay: from the titrations on yeast surface.
Assay [5] concerns the target EGFR 273-621 E293K, yeast surface displayed (yeast; human). Nature of the assay: from the titrations on yeast surface.
For assay [6], the target named is EGFR 273-621 C287R, yeast surface displayed (yeast; human). Nature of the assay: titration on yeast surface, flow cytometry, global fit of three data sets. In general terms: In flow cytometry, cells or beads pass a laser one at a time.
The target in assay [7] is wild-type EGFR 273-621, yeast surface displayed (Example 3) (yeast; human). Described as above.
For assay [8], the target named is EGFR 273-621 C287R, yeast surface displayed (yeast; human). The assay is described as follows: titration on yeast displaying EGFR 273-621 C287R, flow cytometry, three data sets.
The target in assay [9] is EGFR 273-621 E293K, yeast surface displayed (yeast; human). Nature of the assay: titration on yeast surface, flow cytometry.
The target of assay [10] is monoclonal antibody 806. The assay is described as follows: competition ELISA: peptide in solution against mAb […] binding to plate-coated 1-501 EGFR fragment. (ELISA stands for enzyme-linked immunosorbent assay.)

Chain of monoclonal antibody 806 (VH): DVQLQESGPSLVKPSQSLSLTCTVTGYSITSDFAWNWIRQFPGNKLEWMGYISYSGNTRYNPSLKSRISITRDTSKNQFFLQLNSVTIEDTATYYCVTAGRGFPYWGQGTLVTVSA
Chain of monoclonal antibody 806 (VL): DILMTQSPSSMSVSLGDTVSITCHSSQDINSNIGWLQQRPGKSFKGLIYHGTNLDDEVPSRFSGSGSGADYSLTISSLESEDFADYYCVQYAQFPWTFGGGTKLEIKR

monoclonal antibody 528: the median fluorescence after mock preincubation in assay [1] stood at 112. For the same molecule, in assay [2], the change (%) in antibody reactivity after preincubation with EGF is -23% and the change (%) in antibody reactivity after preincubation with mAb[…] is -3%.

As for monoclonal antibody 806, the results for the EC50 (read off the curve) in assay [3] and in [8] were 2 nM and 100 nM, respectively. This molecule came in with a median fluorescence after mock preincubation in [1] of 7. Moreover, the ΔΔG compared to wild-type in assay [4] was determined as 2.4 kcal/mol; in assay [5], 5.7 kcal/mol. In addition, the change (%) in antibody reactivity after preincubation with EGF in [2] is -48%. Also, the change (%) in antibody reactivity after preincubation with mAb[…] in [2] was found to be 163%. Further, the figures for the equilibrium dissociation constant (Kd) in assay [6], in assay [7] and in [9] were 127 nM, 2.13 nM and more than 30000 nM, respectively.

The molecule CGADSYEMEEDGVRKC [287-302 EGFR peptide (287…302)] came in with an IC50 (read off the curve) in assay [10] of 3 µg/mL.
